The values that follow are results of earlier work, collected in publication PMC11346406.

This data set concerns the target TDP-43 PLD (Homo sapiens) (UniProt Q13148). The experiment in a line: NMR.

TDP-43 RRM1-RRM2, sequence (Q13148 102-269): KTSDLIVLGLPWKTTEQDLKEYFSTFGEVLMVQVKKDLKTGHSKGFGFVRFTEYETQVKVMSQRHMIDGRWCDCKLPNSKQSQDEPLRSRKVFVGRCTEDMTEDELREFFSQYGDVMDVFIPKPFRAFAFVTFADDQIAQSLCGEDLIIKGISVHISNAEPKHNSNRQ
TDP-43 PLD (Homo sapiens), sequence (Q13148 274-414): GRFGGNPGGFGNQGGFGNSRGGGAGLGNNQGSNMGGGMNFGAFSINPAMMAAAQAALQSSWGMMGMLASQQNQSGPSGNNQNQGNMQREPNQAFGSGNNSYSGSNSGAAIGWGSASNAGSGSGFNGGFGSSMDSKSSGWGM

What is called Kd is the equilibrium constant for the complex coming apart. For TDP-43 RRM1-RRM2 (from UniProt Q13148), the dissociation constant Kd was 5 µM.
